Experimental findings from PMC9956121 are described below.

Test [1] deals with hTAPBPR^FLQ (S104F, K211L, R270Q), luminal domain, C94S (human). The experiment in a line: SPR; biotinylated hTAPBPR mutants immobilised on a streptavidin chip; Ac-6-FP-loaded MR1 C262S flowed over at 0-100 µM; 25°C; 150 mM NaCl, 20 mM sodium phosphate pH 7.4, 0.1% Tween 20; one site-specific binding fit.
For test [2], the target named is hTAPBPR^RQ (K211R, R270Q), luminal domain, C94S (human). The test is described as above.
In test [3] the target is hTAPBPR^KRQ (R105K, K211R, R270Q), luminal domain, C94S (human). Described as above.
Test [4] addresses chicken TAPBPR, luminal domain (chicken (G. gallus)). The experiment in a line: SPR; biotinylated TAPBPR on a streptavidin chip; MR1 C262S injected at 0-100 μM; 25°C; 150 mM NaCl, 20 mM sodium phosphate pH 7.4, 0.1% Tween 20. On the technique in general: In SPR one partner is held on a chip, and binding of the other changes the refractive index at the surface.
Test [5] has as its target human TAPBPR (TAP binding protein, related), luminal domain (human). The test is described as above.
The target of test [6] is peptide-deficient (empty) HLA-A*01:01/hβ2m (human).
Test [7] addresses peptide-deficient (empty) HLA-A*24:02/hβ2m (human).
In test [8] the target is peptide-deficient (empty) HLA-A*11:01/hβ2m (human).
Test [9] has as its target peptide-loaded HLA-A*02:01/hβ2m (photolabile peptide KILGFVFJV) (human).
The target in test [10] is HLA-A*02:06/hβ2m loaded with a placeholder peptide (human).
Test [11] has as its target peptide-deficient (empty) HLA-A*02:01/hβ2m (human).
Test [12] concerns the target peptide-deficient (empty) HLA-B*37:01/hβ2m (human).
For test [13], the target named is peptide-deficient (empty) HLA-A*02:01/hβ2m (human). This is another data set of the same source.
Test [14] has as its target HLA-A*02:71/hβ2m loaded with a placeholder peptide (human).
Test [15] deals with HLA-A*02:77/hβ2m loaded with a placeholder peptide (human).
In test [16] the target is chicken TAPBPR, luminal domain (chicken (G. gallus)). The experiment in a line: SPR; biotinylated TAPBPR (about 1000 RU) on a streptavidin chip; HLA UV-irradiated 20 min at 365 nm just before injection at 0-20 μM; 25°C; 150 mM NaCl, 20 mM sodium phosphate pH 7.4, 0.1% Tween 20.
Test [17] concerns the target hTAPBPR^FLQ (S104F, K211L, and R270Q), soluble ectodomain (human). The description is as above.
For test [18], the target named is hTAPBPR^RQ (K211R and R270Q), soluble ectodomain (human). The test is described as above.
Test [19] concerns the target human TAPBPR (TAP binding protein, related), luminal domain (human). Described as above.
For test [20] the target is unchanged. The experiment in a line: SPR; biotinylated TAPBPR (about 1000 RU) on a streptavidin chip; peptide-loaded HLA, not UV-irradiated, injected at 0-20 μM; 25°C; 150 mM NaCl, 20 mM sodium phosphate pH 7.4, 0.1% Tween 20.
For test [21], the target named is hTAPBPR^FLQ (S104F, K211L, R270Q), luminal domain, C94S (human). The experiment in a line: SPR; biotinylated TAPBPR (about 1000 RU) immobilised on a streptavidin chip; peptide-loaded HLA (photolabile peptide, no UV) flowed over at 0-20 µM; 25°C; 150 mM NaCl, 20 mM sodium phosphate pH 7.4, 0.1% Tween 20; 30 µl/min, 60 s injection, 180 s dissociation; kinetic fit or one site-specific binding ….

The target in test [22] is hTAPBPR^RQ (K211R, R270Q), luminal domain, C94S (human). The test is described as above.
For test [23], the target named is hTAPBPR^KRQ (R105K, K211R, R270Q), luminal domain, C94S (human). Described as above.
Test [24] has as its target chicken TAPBPR, luminal domain (chicken (G. gallus)). The experiment in a line: SPR; biotinylated TAPBPR (about 1000 RU) on a streptavidin chip; peptide-loaded HLA, not UV-irradiated, injected at 0-20 μM; 25°C; 150 mM NaCl, 20 mM sodium phosphate pH 7.4, 0.1% Tween 20.
Test [25] has the same target. The experiment in a line: ITC; 150 μM pHLA-B*08:01 in the syringe titrated into 5 μM chTAPBPR in the cell, both with 0.45 mM FLRGRAJGL; 150 mM NaCl, 20 mM sodium phosphate pH 7.2; one-site model; apparent KD.

“MR1 C262S loaded with acetyl-6-formylpterin (Ac-6-FP) (complex)”: the results for the Kd in test [1], in test [2] and in test [3] were 48000 nM, 49500 nM and 62000 nM, respectively.

As to “acetyl-6-formylpterin-loaded MR1 C262S/hβ2m (from UniProt P61769 21-119) (complex)”, the Kd in [4] is 19200 nM; in test [5], 98700 nM.

On to “chicken TAPBPR, luminal domain (domain or fragment)”, for which the kapp of fluorescent peptide binding to HLA-A*01:01 with 5 μM TAPBPR (FP) in test [6] is 0.00017 s⁻¹. Besides, the overall exchange rate (FP), against hTAPBPR was more than 7 fold in [7] and more than 17 fold in test [8].

In [9], “hTAPBPR^FLQ (S104F, K211L, and R270Q), soluble ectodomain (domain or fragment)” registered a k2overall of exchange of KILGFVFβFV-loaded HLA-A*02:01 with TAMRA-[…] (FP), against hTAPBPR of 90 fold. The same substance displayed a k2overall of peptide exchange (FP), against hTAPBPR in test [10] of 14 fold. Further, the kapp of fluorescent peptide binding to HLA-A*01:01 with 5 μM TAPBPR (FP) in test [6] was found to be 7e-05 s⁻¹.

In turn, “hTAPBPR^KRQ (R105K, K211R, and R270Q), soluble ectodomain (domain or fragment)” displayed a k2overall of exchange of KILGFVFβFV-loaded HLA-A*02:01 with TAMRA-[…] (FP), against hTAPBPR in test [9] of 60 fold. The k2overall of peptide exchange (FP), against hTAPBPR in test [10] stood at 9 fold. The substance further registered a kapp of fluorescent peptide binding to HLA-A*01:01 with 5 μM TAPBPR (FP) in test [6] of 0.00013 s⁻¹.

In the case of “hTAPBPR^RQ (K211R and R270Q), soluble ectodomain (domain or fragment)”, in test [9], the k2overall of exchange of KILGFVFβFV-loaded HLA-A*02:01 with TAMRA-[…] (FP), against hTAPBPR was found to be 60 fold. For the same substance, the k2overall of peptide exchange (FP), against hTAPBPR in [10] stood at 9 fold. Further, the kapp of fluorescent peptide binding to HLA-A*01:01 with 5 μM TAPBPR (FP) in test [6] turned out to be 0.00014 s⁻¹.

For the substance “human TAPBPR (TAP binding protein, related), luminal domain (domain or fragment)”, the k2overall of peptide exchange (FP), against chTAPBPR amounted to 8 fold in test [11] and 5 fold lower in [12]. Further, the k2overall of peptide exchange (FP) in test [13] was 1160 M⁻¹ s⁻¹; in [14], 335 M⁻¹ s⁻¹; in test [15], 17200 M⁻¹ s⁻¹.

Substance “peptide-deficient (empty) HLA-A*01:01/hβ2m (from UniProt P61769 21-119) (complex)” displayed a Kd in [16] of 1460 nM.

On to “peptide-deficient (empty) HLA-A*02:01/hβ2m (from UniProt P61769 21-119) (complex)”, for which the Kd in [16] is 2960 nM; in test [17], 81 nM; in test [18], 188 nM; in [19] it was 170 nM.

For “peptide-deficient (empty) HLA-A*11:01/hβ2m (from UniProt P61769 21-119) (complex)”, the Kd was 910 nM in test [16] and 2040 nM in [19].

Regarding “peptide-deficient (empty) HLA-A*24:02/hβ2m (from UniProt P61769 21-119) (complex)”, the Kd in test [16] came to 1680 nM; in test [19] it was 2540 nM.

Turning to “peptide-deficient (empty) HLA-A*29:02/hβ2m (from UniProt P61769 21-119) (complex)”, the Kd in test [16] came to 290 nM; in test [19], 260 nM.

As to “peptide-deficient (empty) HLA-A*30:01/hβ2m (from UniProt P61769 21-119) (complex)”, the Kd in test [16] worked out at 1280 nM; in [19], 990 nM.

Regarding “peptide-deficient (empty) HLA-A*68:02/hβ2m (from UniProt P61769 21-119) (complex)”, the values for the Kd in test [16] and in test [19] were 430 nM and 120 nM, respectively.

In test [16], “peptide-deficient (empty) HLA-B*08:01/hβ2m (from UniProt P61769 21-119) (complex)” registered a Kd of 1890 nM.

For the substance “peptide-deficient (empty) HLA-B*37:01/hβ2m (from UniProt P61769 21-119) (complex)”, the Kd in [16] was found to be 2190 nM; in test [19], 7020 nM.

With “peptide-deficient (empty) HLA-E*01:03/hβ2m (from UniProt P61769 21-119) (complex)”, the Kd in [19] was 1510 nM.

In test [16], “peptide-deficient (empty) HLA-G*01:01/hβ2m (from UniProt P61769 21-119) (complex)” came in with a Kd of 11200 nM.

“peptide-loaded HLA-A*02:01/hβ2m (photolabile peptide KILGFVFJV) (from UniProt P61769 21-119) (peptide-MHC)” gave a Kd in [20] of 9440 nM.

“peptide-loaded HLA-A*02:01/hβ2m/KILGFVFJV (from UniProt P61769 21-119) (peptide-MHC)”: the results for the Kd in test [21], in test [22] and in [23] were 1260 nM, 1310 nM and 1380 nM, respectively.

Take “peptide-loaded HLA-A*24:02/hβ2m (photolabile peptide VYGJVRACL) (from UniProt P61769 21-119) (peptide-MHC)”: the Kd in test [24] amounted to 17400 nM; in [20], 10900 nM.

For the substance “peptide-loaded HLA-A*29:02/hβ2m (photolabile peptide) (from UniProt P61769 21-119) (peptide-MHC)”, the Kd came to 170 nM in [24] and 190 nM in [20].

“peptide-loaded HLA-A*30:01/hβ2m (photolabile peptide) (from UniProt P61769 21-119) (peptide-MHC)”: the Kd in [20] was 950 nM.

Take “peptide-loaded HLA-A*68:02/hβ2m (photolabile peptide) (from UniProt P61769 21-119) (peptide-MHC)”: the Kd in test [24] came out at 560 nM; in test [20], 220 nM.

On to “peptide-loaded HLA-B*08:01/hβ2m (photolabile peptide FLRGRAJGL) (from UniProt P61769 21-119) (peptide-MHC)”, for which the Kd in test [25] amounted to 4600 nM; in test [24], 3190 nM.
